PMC11341946

Molecular target: RNA polymerase II
Assay: Re-ChIP (IP ERα then IP PolII), real time qPCR
Details: HEK293T cells, read off a plot
[1] = complement C3 enhancer, cadmium (2 µM) for 60 minutes
[2] = complement C3 enhancer, control (untreated)
[3] = complement C3 enhancer, estradiol (100 nM) for 60 minutes
[4] = lactoferrin enhancer, cadmium (2 µM) for 60 minutes
[5] = lactoferrin enhancer, control (untreated)
[6] = lactoferrin enhancer, estradiol (100 nM) for 60 minutes

Substance: wild-type estrogen receptor alpha (from UniProt P03372) D538G
- response [1]: 0.019 % Input
- response [2]: 0.0076 % Input
- response [3]: 0.0077 % Input
- response [4]: 0.014 % Input
- response [5]: 0.0046 % Input
- response [6]: 0.0061 % Input

Substance: wild-type estrogen receptor alpha (from UniProt P03372) Y537S
- response [1]: 0.015 % Input
- response [2]: 0.0065 % Input
- response [3]: 0.0073 % Input
- response [4]: 0.0063 % Input
- response [5]: 0.0022 % Input
- response [6]: 0.0022 % Input
